38 variants from the RNAGym collection of RNA variant scans (doi:10.7554/elife.80360) can be followed below.

B1: Hairpin Ribozyme (parent)
chain: GUCCUCUUUCACGUGCGCGUGAAAGAGAGAAGUGAACCAGAGAAACACACGUUGUGGUAUAUUACCUGGUA

Variants of B1 are the subject of this data set. As to the kind of experiment: self-cleavage, relative activity (ratio to wild type); higher = more cleavage; co-transcriptional.
For the variant GUCCUCUUUCACCUGCGCGUGAAAGAGAGAAGUGAACCAGAGAAACACACGUUGUGGUAUAUUUCCUGGUA, the self-cleavage worked out at 0.128.

Consider GUCCUCGUUCACGUGCGCGUGAAAGAGAGAAGUGAACCAGAGAAACACACGUUGUGGUAUAUCACCUGGUA, for which the self-cleavage stood at 0.143.

For the variant GUCCUCUUUCACGUGCGCGUGAAAGAGAGAAGUGAAUCAGAGAAACACACGUUGUGGUAUAUUACAUGGUA, the self-cleavage came to 0.0721.

GUCAACUUUCACGUGCGCGUGAAAGAGAGAAGUGAACCAGAGAAACACACGUUGUGGUAUAUUACCUGGUA: the self-cleavage came out at 0.125.

On to GUCCUCUUUCACGUGCGCGUGAAAGAGAGAAGUGACCCAGAGAAACACACGUUGUGGUACAUUACCUGGUA, for which the self-cleavage came to 0.794.

Consider GUCCACUUUCACGUGCGCGUGAAAGAGAGAAGUGAACCAGAGAAUCACACGUUGUGGUAUAUUACCUGGUA, for which the self-cleavage was found to be 0.141.

Turning to GUCCUCUUUCACGUGCGCGUGAAAGAGAGAAGUGAACCAGAGAAACACACGUUGUGAUAUAUUCCCUGGUA, the self-cleavage is 0.118.

In the case of GUCCUCUUUCACGUGCGCGUGAAAGAGAGAAGUGAAACAGAGAAAUACACGUUGUGGUAUAUUACCUGGUA, the self-cleavage is 0.0922.

On to GUCCUGUUUCACGUGCGCGUGAAAGAGAGAAGUGAACCAGAGAAACACACGAUGUGGUAUAUUACCUGGUA, for which the self-cleavage stood at 0.433.

Consider GUCCUCUUUCACGUGCGCGUGAAAGAGAGAAGUGAACCAGAGAAGCACACGUUGUGGUAUCUUACCUGGUA, for which the self-cleavage stood at 0.142.

Consider GUCCUCUUUCACGUGCGCGUGAAAGAGAGAAGUGAGCCAGAGGAACACACGUUGUGGUAUAUUACCUGGUA, for which the self-cleavage came to 0.0267.

With GUCCUCUUUCACGUGCGCGUGAAAGAGAGAAGGGAACCAGAGAAACACACGUUGUGCUAUAUUACCUGGUA, the self-cleavage came out at 0.108.

As for GUCCUCUUUCACGUGCGCGUGAAAGAGAGAAGUGAACCAAAUAAACACACGUUGUGGUAUAUUACCUGGUA, the self-cleavage was found to be 0.127.

For GUCCUCUUUAACGUGCGCGUCAAAGAGAGAAGUGAACCAGAGAAACACACGUUGUGGUAUAUUACCUGGUA, the self-cleavage turned out to be 0.67.

Take GUCCUCUUUCACGUGCGCGUGAAAGAGAGAAGUGAACCAGAGAAACUCACGUUGUGGUAUAUUACCUGGUU: the self-cleavage came out at 0.234.

Turning to GUCCUCUUUCACGUGCGCGUGAAAGAGAGAAGAGAACCAGAGAAAGACACGUUGUGGUAUAUUACCUGGUA, the self-cleavage is 0.176.

For the variant GUCCUCUUUCACGUGCGCGUGAAAGAGAGAAGUGAACCAGAGAUACACAUGUUGUGGUAUAUUACCUGGUA, the self-cleavage was 0.252.

For the variant GUCCUCUUUCACGUGCGUAUGAAAGAGAGAAGUGAACCAGAGAAACACACGUUGUGGUAUAUUACCUGGUA, the self-cleavage was 1.08.

For the variant GUCCUGUUUCACGUGCGCGUGAAUGAGAGAAGUGAACCAGAGAAACACACGUUGUGGUAUAUUACCUGGUA, the self-cleavage was determined as 0.331.

On to GUCCUCUUUCACGUGCGCGUGAAAGAGAGAAGUGAACCAGAGGAACACAAGUUGUGGUAUAUUACCUGGUA, for which the self-cleavage was 0.131.

For GUCCUCUUUCACGUGCGCGUGAAAGAGAGAAGUGAACCAGAGAAACACACGUUGUGGAAUAUGACCUGGUA, the self-cleavage was 0.194.

GUCCUCUUUCACGUGCGCGUGAAAGAGAGAAGUGAACCAGAGAAACACACGUUGUGUGAUAUUACCUGGUA: the self-cleavage was determined as 0.0777.

GUCCUCUUUCACGUGCGCGUGAAAGAGAGAGGUGAACCAGAGAUACACACGUUGUGGUAUAUUACCUGGUA: the self-cleavage is 0.205.

For GUCCUCUUUCACGUGCGCGUGAAAGAGAGCAGUGAACCAGAGAAACACACGUUGUGGUAUACUACCUGGUA, the self-cleavage was 0.0331.

In the case of GUCCUCUUUCACGUGCGCGUGAAAGAGAGAAGUGAACCCGAGAAACUCACGUUGUGGUAUAUUACCUGGUA, the self-cleavage was determined as 0.151.

For GUCCUCUUUCACGUGCGCGUGAAACAGAGAAGUGAACCAGAGAAACAAACGUUGUGGUAUAUUACCUGGUA, the self-cleavage amounted to 0.129.

As for GUCCUCUUUCACGUGCGCGUGAAAGAGAGAAGUGAACCAGAGAAACACACGUUGUGGUAUAUUGCCUGGUA, the self-cleavage turned out to be 0.544.

In the case of GUCCUCUUUCACGUGCGCGUGAAAGAGAGAAGUGAACCAGACAAACACACUUUGUGGUAUAUUACCUGGUA, the self-cleavage is 0.448.

Take GUCUUCUUUCACGUGUGCGUGAAAGAGAGAAGUGAACCAGAGAAACACACGUUGUGGUAUAUUACCUGGUA: the self-cleavage was 0.362.

As to GUCCUCUGUCACGUGCGCGUGAAAGAGAGAAGUGAACCAGAGAAACACACGUUGUCGUAUAUUACCUGGUA, the self-cleavage worked out at 0.0783.

In the case of GUCCUCUUUCACGUACGCGUGAAAGAGAGAAGUGAACCAGAGAAGCACACGUUGUGGUAUAUUACCUGGUA, the self-cleavage came to 0.17.

Regarding GUCCUCUUUCACGUGCGCGUGAAAGAGAGAAGUGAACAAGAGAAACACACGUUGUGGUAUAUUACCUGGUA, the self-cleavage turned out to be 0.171.

Turning to GUCCUCUUUCAAGUGCGCGUGAAAGAGAGAAGUGAACCAGAGGAACACACGUUGUGGUAUAUUACCUGGUA, the self-cleavage worked out at 0.116.

For GUCCUGUUUGACGUGCGCGUGAAAGAGAGAAGUGAACCAGAGAAACACACGUUGUGGUAUAUUACCUGGUA, the self-cleavage was 0.277.

On to GUCCUCUUUCACGUCCGCGUGAAAGAGAGAAGUGAACCAGAGUAACACACGUUGUGGUAUAUUACCUGGUA, for which the self-cleavage came to 0.126.

For GUCCUCUUUCACGUGCGCGAGAAAGAGAGAAGUGAACCAGAGAAACACACGUUGUGGGAUAUUACCUGGUA, the self-cleavage came to 0.762.

As to GUCCUCUUUCACGUGCGCGUGAAAGAGAGAAGUGAACCAGAGAAAGAAACGUUGUGGUAUAUUACCUGGUA, the self-cleavage was found to be 0.204.

For GUCCUCUUUCACGUGCGCGUGAAAGAGAGAAGUGAACGAGAGAAACACACGUUGUGGUAUAUUACCUAGUA, the self-cleavage turned out to be 0.247.
